Experiment: soluble on expression in E. coli; label from the status in PepcDB or PDB records

Which “soluble on expression in E. coli” value does the source give for “MEADRKADNGNAGFSLVCHPEERITYRVGNKVICCLDGSRIGIQFETSTAGETYEVYHCVLESKSFLEKMIVLEHTIPFFLPLSDLENDLLFSNAKKFIDNVGDLLQAYVDRKEQVRLIKELFGHQISEIYHSLPYHMIEFSMDDCDCKFVVSLRYGDLLCELPTKVRILVWPMHHLSKKQCTSPGSPAIPVRLPFAEDAFRIQSLPEAYAEIMPNMPNEIRQLFQTSPS” here?
The value was “soluble”.

With “MGSDKIHHHHHHMKPLAYRMRPQSIDQVVGQQHLVGPKKIIRRMVEARQLSSMILYGPPGIGKTSIASAIAGSSKYAFRQLNAATDGQKELSQVAAEGKMSGTVVLLLDEIHRLNKVKQDFLLPLLESGQVIMIGATTENPYLAISPAIRSRCQIFELKPLTEEEILTAVDRALTDEERGLGKYHAKLTKEAGEFLAQKGNGDLRATLNSLELAVLSTKQELEAEGKDASSLTVTLDDMADSLQMKIQNFDADGDGHYDLLSAFQKSIRGSDTDAGLHYLGRLLESGDLVSICRRLSVIAYEDIGLANPPACERVILAVQAAQQLGLPEARIPLANAVIELCLSPKSNSAMTAIDAALADIRQSNVGQIPDQLKDAHYKGASKLGHGTGYLYPHDYPGDWVAQAYLPDRMQGKQYFAPKGESKFEAAFKSQYQRLHDLQKAGLKGK” as the sequence, how does the “soluble on expression in E. coli” value read?
The value was “not soluble”.

With “MGSDKIHHHHHHMSKFWEKEFTCPFCGTKFKKKMVFFDSIKIKARDIDLKPVFEDVNPMFYEVVTCPNCYFSAFDKDFETITIKGEETERKLKKLLEEAKKKVELKNVENHVEAIKRYALSGMVYSVLNQRKKVAISYLKIAWLFRELGKSEEEKRYLERALKEFESHYKYDYYEESDEPMILFYLGVLNQILGNRKEAARWYELLLRKYDGKSLYAKVGRERWQELRRS” as the sequence, how does the “soluble on expression in E. coli” value read?
The value was “not soluble”.

Which “soluble on expression in E. coli” value does the source give for “MSLGDKKIRIRRTNEQLDKEVISEFEKLVGEFGFGNVNLSALMKAADLEANVFYRRYGSMDNLYDRLAKQYDFWINNTIDISTLNTLGPKKFFAETFKTLFRNLSENSVMQKLLLYEMTTINSTTKRSAETRDVMNLNLITFYENLFAPAKINIKSIASILIGGIYYLILHKECAKICTIDYKTKEGENAFSEGIDFLTDIIFDRLEMYDRDKKAIRQMISDGISESKICKYMGINKNDLKTLLSEGHHHHHH” here?
The value was “soluble”.

With “MKIKHLPFDQNRNGWSADLVDKPNYPQQRGKTTADWLVIGAGYAGIAFAQRLAEQRPDKHIILLDAGEIGDNASGRNSGFVIDLPHNIGSSTAELEKAAAYRRLLQSGVAHLKEKVDRHAIACDWSVAGKYHCAVSSTFNGLIDTYVRELNGLGEPYQVVEKDELARRLGTSFYQRAVYTPNCILLNPAALVIGLVASLPKNVTVYAHSPALNIETGSRIRVETPYGEIQADKLMMAINGAARGLPLFNGRVFAVTTFATLTEPLNAEQTARMGDMPDWGLTPVNALASATLRYTRDHRFLIREHVKFAPELVNSAVETGRHARRHAAIFARMFPQLSDVKMAHTWSGLISVTRNGAPIWGQLSDNVFASAGCNGAGLSKQTAAGHILADLALGEDNPLISDMQSLGQANYLPPRPFLDVGVNGYLTSERWKARSERLEHHHHHH” as the sequence, how does the “soluble on expression in E. coli” value read?
The value was “not soluble”.

Which “soluble on expression in E. coli” value does the source give for “MKLIKTIDAVGQVLCHDITQIIPGEFKGRKFKKGHIVKEEDIPVLLSLGKDNLYVWEKSEGMVHENEGALFLKELTAGENLDFSEIKEGKIDFIAACDGLLKIDVDALFDLNCVGEIMMATLHNNFIVNKGLKVAGTRVIPLVIDEKKLEDAKKVVGNRKIVNVVPFKPKKVGIVTTGNEVFYSRIVDKFGPVIEEKVKGFGCEVIGQTICPDDKEIIKSAIKEFISQGAELICCTGGMSVDPDDVTPTAIKETGADLVTYGSPILPGAMFLLAYYGEVPIMGIPGCAMYHKTTVFDIVLSRVLIDEKLDKYDIARYGHGGLCMNCDVCTYPACNFAKI” here?
Its value is “soluble”.

Which “soluble on expression in E. coli” value does the source give for “METRRDERIGRLAQALKKTDKLHLKDAAQLLGVSEMTVRRDLNADSTSVMLLGGYVVSDLKNNGVTNYFVSDQQTKHVREKQAIGTAAAYLVEANDTVFFDCGTTIPFIIDAIPDELLFTAICYSLNTFLALQEKKACRVILCGGEYHPDNAIFTPLNQRCELDNICPNKAFISAAGIELNAGATCFNFAELGMKQRAMATAQRIIIVADNSKFGQIKRACIGPMTLFDTVISDSAPSEPYLRYFSNNGIQLIHPGNLEHHHHHH” here?
The value was “soluble”.

For “MAAPLIPVLTAPTAAGKTALALRLAREYGLEIVAADAFTVYRGLDLGTAKPTPQERASVPHHLLDVVDVTQSYDVAQYAAQAEAAIVDILARGRLPLVVGGTGFYLSALSRGLPLTPPSDPKMRAALEAELQERGLDALLAEIEQANPAEAARMERNPRRVVRALEVYRAAGRFPGEFGYSPPAFQYQVFAFSPPAAEMEQRVQERTAAMLRAGWPQEAQWLAGQVPPEQEPRPTVWQALGYAEALAVAQGRLSLAGAEQAIALATRQYGKRQLTWMRRQLGAEVQSPDAAEAHLRAFLERSGAPSLEHHHHHH”, which “soluble on expression in E. coli” value is on record?
The value was “not soluble”.

With “GIDPFTVRTRVSEGLVLAEPAKLMISTDGSASTADLTRATTTWNQQSNNLGASSKYVTSVLMDAGNTGVITITYVADQVGLPTAGNTLILSPYINDGNTRTALATAVAAGTRGTIDWACTSASNATATAQGFTGMAAGSVPQEFAPAQCR” as the sequence, how does the “soluble on expression in E. coli” value read?
Its value is “soluble”.

With “MVDAGLVLAAGFSRRFRGLLGVHKVAAGVRGYPLLCYPVTSLALAGVDRVFVVASQFNLNVVELVLGHCPFRVSGVLISSLSTLGNGFSLVEGLREAGLRGSRCLAVSMADHVYPPSIARRLIEAGCNTLGVDSRPRYIEVGEATHVSLEPGAGVRLGKDVEGCCVDIGIHTIEAGIASIGCIDLPPRGEASVSQLITCAARKGYTFKLVDVDGGPWMEVDSPEDLERLLQGDGLEVLEAVRSEWGFLEHHHHHH” as the sequence, how does the “soluble on expression in E. coli” value read?
The value was “not soluble”.

With “MGSDKIHHHHHHMFKSTLNSIIRRPLKGFQLLRGADSSNTRPQSPRASARDVTEKQILRTPSAPTAIPLREIIYRVPSLFPRPLEDSVKDFRDFIKNEDAFQTELLKTLPFYPTPSESKTARLIRTVVDDEGNYINEFCIRPRKTSVPEADLKHLVFIHGYGAGLGFFIKNFEDIPLLDNEWCIHAIDLPGYGFSSRPKFPFEYPRDNIHSVQDWFHERIHTWFSKRNLLNRPEKNIVMAHSLGSYLMALYLQKYKESPSFKKLILCSPAGVSYRDFNNTASEVEKWKPPPWWYVKLWDRNISPFTLVRNFRQLGSKITSGWSYRRFKHILNGDPEQSKRFEALHRYAYAIFNKRGSGEYLLSFALKCGGEPRLSLEQQLFDGKKSDILKNSNCDWLWLYGDDDWMDVNGGLRVSRFLKEKLKQKSNVIIVPHSGHHLYLDNYKFFNNILTKEMQKI” as the sequence, how does the “soluble on expression in E. coli” value read?
The value was “not soluble”.

For “MQDVFIIGSRGLPAKYGGFETFVEELISHQSSKNIRYHVACLSDTKHKVHFDYKGADCFYLNPPKLGPARVIAYDMMAITYALSYSDQHQIQNPIFYVLGNTVGAFIAPFVKQIHNRGGRFFINPDGLEWKRSKWSRPVQAYLKFSEKQMTRQADLVISDNIGIDRYLKQVYPWSKTCFIAYGTQTQPSRLATADSKVRAYFQTFDIREKDYYLILGRFVPENNYETAIKEFMASSTKRDLVIICNHEGNAYFKQLLAETECDKDPRIKFVGTLYDKELLAYIREQAYAYIHGHEVGGTNPGLLEALAHTNLNLVLGVDFNQSVAKSAALYWTKQKGQLAELINQVDAGFDSDHLGKEAKAIIQEHYTWEKIVGEYEALFLNEH”, which “soluble on expression in E. coli” value is on record?
The value was “not soluble”.

Which “soluble on expression in E. coli” value does the source give for “MSLNLKDLIERERNCQKKKAFNCSFLDYLDIVKENPEVCKFAHKRIYDLIIKQGFHIVDKNESIKKYNFFGEDFFGIDKTLMKIVNYFYAASMEGEESKQVLYLVGPVGSGKSSIVEAIKIALEDSEPIYALENCPMREEPLHLIPNNLRRKFEKELDLKIEGDLCPVCTYRLREEFNGEIEKFPVQKIGFSIKERRGVGVVPPVDPNNQDTSVLVGSVDISKMDIYSEHDPRIFSLNGAFNVGNRGIVEFIEIFKNDIEYLHSIITATQEKLIPSPGKGSMVYYDGVIIAHSNEGEWNKFKSDPTNEAILDRIVKIEVPYCLELDEEKKIYKKILKNSNFQVHIAPHTIDVAAMFAILTRLNSSEKVDLMTKLKIYNGEEIVEKASIKKIEREELEEECRQKEGMTGVSTRFIIKAINNAICESNCSCINPIDVINSLITAVKEKDLCEEVEDKYISFLEDVVRKEYNKILYKEITKFFIESFNSQGEALFNNYLDHAEAYVNKVYLKDNITGENLDPDEEFMREIEEEIGVTENSSKGFRKDVVAYILYLIRKGEEINCNCYKPLKEAIERKLISSSREISRIINPSKIRNKAQDEKYKFIVEKLKNNGYCDTCAFYTLRYAANNFWRDEGHHHHHH” here?
Its value is “soluble”.

Which “soluble on expression in E. coli” value does the source give for “MAKLLITGGCGFLGSNLASFALSQGIDLIVFDNLSRKGATDNLHWLSSLGNFEFVHGDIRNKNDVTRLITKYMPDSCFHLAGQVAMTTSIDNPCMDFEINVGGTLNLLEAVRQYNSNCNIIYSSTNKVYGDLEQYKYNETETRYTCVDKPNGYDESTQLDFHSPYGCSKGAADQYMLDYARIFGLNTVVFRHSSMYGGRQFATYDQGWVGWFCQKAVEIKNGINKPFTISGNGKQVRDVLHAEDMISLYFTALANVSKIRGNAFNIGGTIVNSLSLLELFKLLEDYCNIDMRFTNLPVRESDQRVFVADIKKITNAIDWSPKVSAKDGVQKMYDWTSSILEHHHHHH” here?
Its value is “soluble”.

With “GMQGAGRLMQPRPDSAFVHDVRVTWGDCDPAKIAYTGHLPRFALEAIDAWWSEYHGPGGWYHLELDTNVGTPFVRLEMDFKSPVTPRHILKCHTWPTRLGTKSITFRVDGVQDGVTCFVGAFTCVFTIADQFKSQPAPDHLRALIEPHIPA” as the sequence, how does the “soluble on expression in E. coli” value read?
Its value is “soluble”.

With “MIPTERRQIILDMVAEKGIVSIAELTERMHVSHMTIRRDLQKLEQQGAVIQVSGGVQSSTRVAHEPSHQIKTELATPQKAAIGKLAASLVQPESCIYLDAGTTTLAIARQLVTMNKLTVVTNDFVIADYLMDNSNCTIIHTGGAVCRENRSCVGEAAATLLRGLMIDQAFISASSWSVRGISTPAEDKVTVKRAVASASRQKILVCDATKYGQVATWLALPLAEFNQIVTDDGLPESAIRALAKVDISLLMAKQ” as the sequence, how does the “soluble on expression in E. coli” value read?
The value was “not soluble”.

Which “soluble on expression in E. coli” value does the source give for “MGSDKIHHHHHHMAAGCTTPMERRQANGNDEYVNAQTTAPLKVPEGLKSPNYSREYDIPTLGAKANRELVGKNLDIRPPLQVLPMAEGTRVEEGSDNVKVIVESFDNSLDLKQEIFGLLKDHLQSRNIEIVKEDFASGTLETGWIETQEVLESSLWGSDKVFNLKQRYQYQVEVRPHGRTGAVIINLVDHQESYDGDDLKTALSADDKRRYAIDMLNNSIAYMAVKREQAIKAKRVRESLGIGVELVDGAEEGDAFYLAQGDSIRYGLT” here?
The value was “not soluble”.

Which “soluble on expression in E. coli” value does the source give for “MSLDTIAVVLKQPQQVELSRLSLTAPTDDDIVVDVAWSGVSTGTERLLWSGRMPQFPGMGYPLVPGYESVGEVVEAGSATDLKPGQMVFVPGAKCFGEVRGLFGASASRLVVPAKRVVPLDSKLGERGILIALAATAYHAIAARGATPPDCIVGHGVLGRLLARISIALGNPPPVVWEKNPIRSGGAEGYAVVDPASDERRDYRSIYDVSGDPKLLDTLISRIAATGEIVLAGFYSEPLSFSFPPAFMREARIRVAAEWQPPDIGATKALIESGKLSLDGLITHHQEAASAPDAYRIAFEDPACLKMVLNWRPSEGHHHHHH” here?
Its value is “soluble”.

Source: the DeepSol protein solubility set
